Measurements as given in patent publication US6849598B1, “Therapeutic compositions comprising bactericidal/permeability-increasing (BPI) protein products” (XOMA, priority 1995, dated 2005).

Key:
Test in all cases: Bactericidal activity in water or broth, CFU after 30 minutes and 3 hours (Example 3)
Type in all cases: cell-based
S. aureus = system: S. aureus
Procedure: (§1) The bactericidal activity of therapeutic compositions comprising BPI protein product and heat-treated PLURONIC P103 or heat-treated PLURONIC P104, was evaluated against the S. aureus and A. baumannii clinical isolates of Example 1 and the additional organisms S. pneunoniae (Microscan® ID no. 145) and E. faecium (Microscan® ID no. 15773). Therapeutic compositions comprising 500 μg/mL rBPI21 in a 0.075% (w/v) concentration of either heat-treated PLURONIC P103 or heat-treated PLURONIC P104 were formulated by diluting a 2 mg/mL solution of “non-formulated” rBPI21 or “formulated” rBPI21, with the appropriate amounts of 0.1% heat-treated PLURONIC P103 or heat-treated PLURONIC P104 solutions. Compositions comprising 500 μg/mL non-formulated rBPI21 in water alone (without any poloxamers) and poloxamer control solutions containing only 0.1% heat-treated P103 or heat-treated P104 (and no rBPI21) were also prepared A “formulated” rBPI23 therapeutic composition containing 1 mg/mL rBPI23, 0.1% PLURONIC F68 and 0.002% TWEEN 80 was also tested for comparison.
(§2) Sterile stock solutions of heat-treated PLURONIC P103 or heat-treated PLURONIC P104 were prepared using the following procedure: (1) making a 0.1% (w/v) solution of the poloxamer in deionized water, (2) heating the solution to a boil, (3) allowing it to cool to room temperature, (4) stirring until the PLURONIC P103 was completely solubilized, and (5) filtering the solution through a 0.22 μm Nalgene filter for sterilization.
(§3) The S. aureus, E. faecium and A. baumannii bacteria were grown on TSA plates (Remel, Catalog #01-920, Lenexa, Kans.), and the S. pneumoniae were grown on 5% sheep blood agar plates (Remel, Catalog# 01-200, Lenexa, Kans.) for 24 hours. A bacterial stock emulsion was prepared by emulsifying bacterial colonies in sterile deionized water to approximately 2.2 to 3.8×10^8 CFU/mL as measured by a Microscan® Turbidity Meter, and diluting further by 1:10 in water. Assays for rBPI21 therapeutic compositions were conducted in 96-well flat-bottom microtiter plates (Corning, catalog# 25860-96) by adding to each well: 185 μL of TSB (Remel, catalog #08-942, Lenexa, Kans.) or sterile water for injection (Kendall McGaw); 8 μL of the bacterial emulsion; 6.3 μL of the indicated 500 μg/mL rBPI21/poloxamer therapeutic composition (or poloxamer control solution or water alone). The final concentrations of bacteria in each well were about 4 to 7×10^5 CFU/mL. Assays for the rBPI23 therapeutic composition were conducted in the same way, except 178 μL of broth or water and 13 μL of the […] rBPI23 composition were added. The well contents were mixed and the plates were incubated at 37° C. The CFUs in each well were counted at 10^−2 and 10^−4 dilutions after 30 minutes and 3 hours of incubation. Results at 30 minutes and 3 hours, respectively, are shown below in Tables 8 and 9.

[1] = system: E. faecium (Microscan® ID no. 15773)
Procedure: as §1, §2, §3

[2] = system: A. baumannii (formerly A. anitratus)
Procedure: as §1, §2, §3

[3] = system: S. pneumoniae (Microscan® ID no. 145)
Procedure: as §1, §2, §3

[4] = broth, Incubation for 30 minutes, Control TNTC / TNTC
[5] = broth, Incubation for 3 hours, Control TNTC
[6] = water, Incubation for 30 minutes, Control TNTC / TNTC
[7] = water, Incubation for 3 hours, Control TNTC

B1: rBPI21: expression product of DNA encoding amino acid 1 to approximately 193 or 199 of BPI holoprotein, cysteine 132 substituted with alanine (protein, UniProt P17213 32-224, looked up, variant C132A)
chain: VNPGVVVRISQKGLDYASQQGTAALQKELKRIKIPDYSDSFKIKHLGKGHYSFYSMDIREFQLPSSQISMVPNVGLKFSISNANIKISGKWKAQKRFLKMSGNFDLSIEGMSISADLKLGSNPTSGKPTITASSCSSHINSVHVHISKSKVGWLIQLFHKKIESALRNKMNSQVCEKVTNSVSSELQPYFQTL
- CFUs (S. aureus; broth, Incubation for 30 minutes, Control 65 / 59): 57 10000 CFUs
- CFUs (S. aureus; [4]): TNTC
- CFUs (S. aureus; [5]): TNTC
- CFUs (S. aureus; water, Incubation for 30 minutes, Control 54 / 63): 2 10000 CFUs
- CFUs (S. aureus; [6]): 315 100 CFUs
- CFUs (S. aureus; [7]): 12 100 CFUs
- CFUs ([1]; broth, Incubation for 30 minutes, Control 68 / 38): 89 10000 CFUs
- CFUs [1, 4]: TNTC
- CFUs [1, 5]: TNTC
- CFUs ([1]; water, Incubation for 30 minutes, Control 37 / 35): 1 10000 CFUs
- CFUs [1, 6]: 50 100 CFUs
- CFUs [1, 7]: 1 100 CFUs
- CFUs ([2]; A. anitratus, broth, Incubation for 30 minutes, Control 44 / 41): 24 10000 CFUs
- CFUs ([2]; A. anitratus, broth, Incubation for 30 minutes, Control TNTC / TNTC): TNTC
- CFUs ([2]; A. anitratus, water, Incubation for 30 minutes, Control 16 / 17): 0 10000 CFUs
- CFUs ([2]; A. anitratus, water, Incubation for 30 minutes, Control TNTC / TNTC): 73 100 CFUs
- CFUs [2, 5]: 58 100 CFUs
- CFUs [2, 7]: 0 100 CFUs
- CFUs ([3]; broth, Incubation for 30 minutes, Control 4 / 1): 4 10000 CFUs
- CFUs ([3]; broth, Incubation for 30 minutes, Control 389 / 350): 290 100 CFUs
- CFUs ([3]; broth, Incubation for 3 hours, Control 337): 447 100 CFUs
- CFUs ([3]; water, Incubation for 30 minutes, Control 1 / 0): 0 10000 CFUs
- CFUs ([3]; water, Incubation for 30 minutes, Control 75 / 47): 61 100 CFUs
- CFUs ([3]; water, Incubation for 3 hours, Control 0): 0 100 CFUs
